Numbering of substitutions follows the chain as printed.

Here are results for 18 molecules from US20230374140A1 (Memorial Sloan Kettering, published 2023).

Experiment [1] addresses T1, NDC80 Peptide A … / HLA-A*02:01 complex (human).
T1 construct: whole, on cells; On peptide-pulsed T2 cells (HLA-A*02:01+); also called NDC80/HLA-A*02:01 complex; NDC80/MHC I
Put plainly: FACS, scFv phage on peptide-loaded T2 cells.
Source text: 34 human phage scFv libraries were used to pan against NDC80/HLA-A*02:01 complex. In order to avoid the conformational change of MHC I complex introduced by immobilizing the protein complex onto plastic surfaces, cell panning was used in place of conventional plate panning. In cell panning, the human scFv phage libraries were first mixed with T2 cells loaded with control peptides to remove scFv phage clones that bind to T2 cells alone or MHC alone. […] T2 is a TAP-deficient, HLA-A*02:01⁺ lymphoblast cell line that express low amounts of HLA-A*02 on the cell surface and can only present exogenous peptides. […] After extensive washing with PBS, peptide-loaded T2 cells with bound scFv antibody phage were spun down. […] The panning was performed for 3 rounds to enrich scFv phage clones that bound NDC80/HLA-A*02:01 specifically.

Experiment [2] concerns the target T2, NC4 peptide … / HLA-A*02:01 complex (human).
T2 construct: whole, on cells; On pulsed T2 cells
Put plainly: FACS, scFv phage on T2 cells loaded with single peptide. (Flow cytometry measures light scatter and fluorescence of single cells or particles in a stream.)

Experiment [3] concerns the target T3, NC3 peptide … / HLA-A*02:01 complex (human).
T3 construct: whole, on cells; On pulsed T2 cells; also pulled down from BV173 lysate (HLA-A*02)
Described as above.

The target in experiment [4] is T4, NC1 peptide … / HLA-A*02:01 complex (human).
T4 construct: whole, on cells; On pulsed T2 cells; also pulled down from BV173 lysate (HLA-A*02) and presented on JMN cells
Described as above.

Experiment [5] addresses T5, NC2 peptide … / HLA-A*02:01 complex (human).
T5 construct: whole, on cells; On pulsed T2 cells; also presented on JMN cells (HLA-A*02)
The experiment is described as above.

Experiment [6] addresses T6, HLA-A*02:01 on T2 cells (human).
T6 construct: whole, on cells; MHC class I molecule of TAP-deficient T2 cells, stabilized by exogenous peptide and detected with BB7.2; also called A*02 protein
Put plainly: HLA-A*02 stabilization on pulsed T2 cells, BB7.2 staining, flow cytometry.
Procedure: Flow Cytometry. T2 cells were pulsed overnight with 50 μg/ml of one of the indicated peptides. Pulsed T2 cells were then stained with either BB7.2-PE antibody specific for HLA-A*02 to ensure stabilization of T2 cells with the pulsed peptides or with the labeled TCR mimic antibodies for 30 min on ice as described herein. Cells were washed after incubation with FACS buffer, resuspended in FACS buffer supplemented with DAPI and analyzed using a BD Fortessa™ flow cytometer.
For alanine screening assays, alanine or glycine substituted peptides were purchased from Genemed Synthesis, Inc. (San Antonio, Texas, USA). Besides the unsubstituted sequence of [sequence] […] If in the original peptide sequence the amino acid present was an alanine, the amino acid was changed to glycine. All other amino acids were changed into alanines.

The target of experiment [7] is T1, NDC80 Peptide A … / HLA-A*02:01 complex. Put plainly: flow cytometry, PE-conjugated antibody on pulsed T2 cells.
Procedure: Pulsed T2 cells were harvested, washed with FACS buffer (PBS, 2% FBS and 0.01% sodium azide) and incubated for 30 min, light-protected, on ice with 2 μg/ml of the labeled antibodies. After incubation, cells were washed again with FACS buffer and resuspended in FACS buffer supplemented with DAPI. For the experiments described in FIGS. 10A-10I, incubation with the TCR mimic antibodies was performed at 2, 10 and 50 μg/ml. Cells were analyzed on an LSRFortessa™ (BD) flow cytometer; the data were analyzed using FlowJo™ v9 software.

B1: Clone 4 scFv phage clone (scFv, V domains shown)
VH: QVQLQQWGAGLLKPSETLSLTCAVYGGSFSGYYWSWIRQPPGKGLEWIGEINHSGSTNYNPSLKSRVTISVDTSKNQFSLKLSSVTAADTAVYYCARGVPYDYWGQGTLVTVSS
VL: QSVLTQPPSVSAAAGQKVTISCSGSRSNIGSNFVSWYQLLPGTAPRLLIYDNNVRPSGIPDRFSGSKSGSSATLGITGLQTGDEADYYCGTWDSSLIAGVFGGGTKLTVLG
As to B1, in experiment [1], the binding result is “binds”.

B2: Clone 18 scFv phage clone (Clone 18 scFv) (scFv)
scFv: QSVLTQPPSVSVAPGQKVTISCSGSSSNIGNNYVSWYQQLPGTAPKLLIYDNNKRPSGIPDRFSGSKSGTSATLGITGLQTGDEADYYCQSYDVYNMTSVFGGGTKLTVLGSRGGGGSGGGGSGGGGSLEMAQMQLVQSGAEVKKPGSSVKVSCKASGGTFSSYAISWVRQAPGQGLEWMGGIIPIFGTANYAQKFQGRVTITADESTSTAYMELSSLRSDDTAVYYCARGFSSWPGIDQWGQGTLVTVSS
For B2, the binding result is “no binding” in experiment [2]; “no binding” in experiment [3]; “no binding” in experiment [4]; “no binding” in experiment [5]; “binds” in experiment [1].

B3: NDC80 Peptide A ALNEQIARL (synthetic peptide) (peptide)
peptide: ALNEQIARL
notes: Free peptide pulsed on T2 cells at 50 µg/ml in the HLA-A*02 stabilization assay; also called unmodified peptide; wild-type peptide
For the molecule B3, the binding result in experiment [6] is listed as “binds”.

B4: Clone 7 scFv phage clone (Clone 07 scFv) (scFv)
scFv: QSVVTQPPSVSGAPGQRITISCTGSSSNIGAGYDVHWYQQLPGTAPKLLIFGNVNRPSGVPDRFSGSKSGTSASLAITGLQAEDEADYYCQSYDSSLSGWVFGGGTKLTVLGSRGGGGSGGGGSGGGGSLEMAQVQLQQSGAEVKKPGATVKVSCKASGYTFTSYGISWVRQAPGQGLEWMGWISAYNGNTNYAQKLQGRVTMTTDTSTSTAYMELRSLRSDDTAVYYCARMSMSEYIDYWGQGTLVTVSS
Turning to B4, the binding result in experiment [2] is recorded as “no binding”; in experiment [3], “no binding”; in experiment [4], “no binding”; in experiment [5], “no binding”; in experiment [1], “binds”.

B5: Clone 5 scFv phage clone (scFv, V domains shown)
VH: QLQLQESGPGLVKPSGTLSLTCAVSGGSISSSNWWSWVRQPPGKGLEWIGEIYHSGSTNYNPSLKSRVTISVDKSKNQFSLKLSSVTAADTAVYYCARFIYGSSSSQTDTWGQGTLVTVSS
VL: QSVLTQPPSVSAAPGQKVTISCSGSSSNIGSNYIYWYQQFPGTAPKLLIYDDNKRPSGIPDRFSGSRSGTSATLGITGLQTGDEADYYCGTWDSPLVAWVFGGGTKLTVLG
For B5, the binding result in experiment [1] was “binds”.

B6: Clone 6 scFv phage clone (scFv, V domains shown)
VH: QVQLQQWGAGLLKPSETLSLTCAVYGGSFSGYYWSWIRQPPGKGLEWIGEINHSGSTNYNPSLKSRVTISVDTSKNQFSLKLSSVTAADTAVYYCARLEGSYYDVWGQGTLVTVSS
VL: QSVLTQPPSVSAAPGQKVTVSCSGTTSDIGSNYVTWYQQLPGTTPKLIIYDNNKRPSGIPDRFSGSKSGTSGTLGITGLQTGDEADYYCGTWDSSLNTFVFGTGTKVTVLG
With B6, the binding result in experiment [1] is listed as “binds”.

B7: TCR mimic antibody clone 11 (mIgG1 format) (antibody, V domains shown)
VH: QVQLVQSGAEVRKPGASVKVSCKASGYSFTSNGITWVRQAPGQGLEWMGWISGYNANTRYAQEFQARVTMTTDTSASTAYMELRSLRSDDTAVYYCARHAYWGGDSDYWGQGTLVTVSS
VL: NFMLTQPHSVSESPGKTVTISCTRSSGSIASNYVQWYQQRPGSAPTTVIYEDNQRPSGVPDRFSGSIDSSSNSASLTISGLKTEDEADYYCQSYDSSNVVFGGGTKLTVLG
notes: conjugated to PE for flow cytometry
On to B7, for which, in experiment [7], the binding result is “binds”.

B8: Clone 12 scFv phage clone (scFv, V domains shown)
VH: QVQLQESGPGLVKPSGTLSLTCAVSGGSISSSNWWSWVRQAPGKGLEWIGEIYHGGSTNFNPSLKSRVTISVDKSKNQFSLNLTSVTAADTAVYYCARYASSSHDFWGQGTLVTVSS
VL: QSVLTQPPSVSAAPGQRVTIYCSGSRSNIVSNYVSWYQQLPGTAPKLLIYDNNKRPSGIPDRFSGSKSGTSATLGITGLQTGDEADYYCGTWDSSLSAYVFGTGTKVAVLG
In the case of B8, the binding result in experiment [1] is “binds”.

B9: Clone 15 scFv phage clone (scFv, V domains shown)
VH: QVQLQESGPGLVKPSGTLSLTCAVSGGSISSSNWWSWVRQPPGKGLEWIGEIYHSGSTNYNPSLKSRVTISVDKSKNQFSLKLSSVTAADTAVYYCARYPGFVWDLWGQGTLVTVSS
VL: B8 VL with R17K, Y21S, R26S, V30G, T73I, S97T, Y99G, A108T
With B9, the binding result in experiment [1] was “binds”.

B10: Clone 10 scFv phage clone (scFv, V domains shown)
VH: QVQLQESGPGLVKPPGTLSLTCAVSGGSISSSNWWSWVRQPPGKGLEWIGEIYHSGSTNYNPSLNSRVIISDDTSKNQFSLTLTSVTAADTAVYYCARYYNSYYDSWGQGTLVTVSS
VL: B8 VL with R17K, Y21S, R26S, V30G, A108T
For the molecule B10, the binding result in experiment [1] was “binds”.

B11: Clone 9 scFv phage clone (scFv, V domains shown)
VH: B9 VH with S15P, P100E, G101Q, F102G, V103S, W104H, L106S
VL: B8 VL with R17K, Y21S, R26S, V30G, V34I, N53S, S66F, T103S, A108T
Take B11: in experiment [1], the binding result is listed as “binds”.

B12: Clone 8 scFv phage clone (scFv, V domains shown)
VH: QLQLQESGPGLVKPSETLSLTCTVSGDSISGYYWSWIRQPPGKGLEWIGEINHSGSTNYNPSLKSRVTISVDTSKNQFSLKLSSVTAADTAVYYCARYYSGFYSSDGWGQGTLVTVSS
VL: B8 VL with G15R, R17K, Y21S, R26S, V30G, K67R, T91S, A98V, A108T
Regarding B12, the binding result in experiment [1] is recorded as “binds”.

B13: Clone 2 scFv phage clone (scFv, V domains shown)
VH: QVQLVQSGAEVKKPGSSVKVSCKASGGTFSSYAISWVRQAPGQGLEWMGWISAYNGNTNYAQKLQGRVTMTTDTSTSTAYMELRSLRSDDTAVYYCARKGFYSGFDSWGQGTLVTVSS
VL: B8 VL with R17K, Y21S, R26S, V30G, N53T, T70S, G90E, W92L, A108T
notes: also called phage clone 2
In the case of B13, the binding result in experiment [1] is given as “binds”.

B14: Clone 14 scFv phage clone (Clone 14 scFv) (scFv)
scFv: QSVLTQPPSVSAAPGQRVTISCSGSTSNIGSNYVSWYQQFPGTAPKLLIYDSDKRISGIPDRFSGSKSGTSATLGITGLQTGDEADYYCGTWDSSLTVGVFGGGTKVTVLGSRGGGGSGGGGSGGGGSLEMAQLQLQESGPGLVKPSGTLSLTCAVSGGSISSSNWWSWVRQPPGKGLEWIGEIYHSGSTNYNPSLKSRVTISVDKSKNQFSLKLSSVTAADTAVYYCARYFGQKYDYWGQGTLVTVSS
For B14, the binding result in experiment [2] is reported as “no binding”; in experiment [3], “no binding”; in experiment [4], “no binding”; in experiment [5], “no binding”; in experiment [1], “binds”.

B15: Clone 19 scFv phage clone (Clone 19 scFv) (scFv)
scFv: NFMLTQPHSVSESPGKTVTISCVRSSGSVASEFVQWYQQRPGHAPTLVIYNDFQRPSGVPDRFSGSIDKSSNSASLTISGLKAEDEADYYCQSYDQSSSIVFGGGTKLTVLGSRGGGGSGGGGSGGGGSLEMAEVQLVQSGAEVKKPGESLKISCKGSGYSFTTYWIGWVRQMPGKGLEWMGIIYPGDSDTTYSPSFQGQVTISADKSLSIAYLQWSSLKASDTAMYYCARYGGQYFWSDSFDSWGQGTLVTVSS
Regarding B15, the binding result in experiment [2] is recorded as “no binding”; in experiment [3] it was “no binding”; in experiment [4], “no binding”; in experiment [5], “no binding”; in experiment [1], “binds”.

B16: Clone 16 scFv phage clone (scFv, V domains shown)
VH: QVQLVQSGAEVKKPGASVKVSCKASGYTFTSYYMHWVRQAPGQGLEWMGIINPSGGSTSYAQKFQGRVTMTRDTSTSTVYMELSSLRSEDTAVYYCARRGWLSWGYYGMDVWGQGTTVTVSS
VL: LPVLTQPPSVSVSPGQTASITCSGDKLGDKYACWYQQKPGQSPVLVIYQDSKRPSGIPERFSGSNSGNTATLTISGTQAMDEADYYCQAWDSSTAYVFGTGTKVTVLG
On to B16, for which, in experiment [1], the binding result is on record as “binds”.

B17: Clone 11 scFv phage clone (Clone 11 scFv) (scFv)
scFv: NFMLTQPHSVSESPGKTVTISCTRSSGSIASNYVQWYQQRPGSAPTTVIYEDNQRPSGVPDRFSGSIDSSSNSASLTISGLKTEDEADYYCQSYDSSNVVFGGGTKLTVLGSRGGGGSGGGGSGGGGSLEMAQVQLVQSGAEVRKPGASVKVSCKASGYSFTSNGITWVRQAPGQGLEWMGWISGYNANTRYAQEFQARVTMTTDTSASTAYMELRSLRSDDTAVYYCARHAYWGGDSDYWGQGTLVTVSS
For the molecule B17, the binding result in experiment [2] is given as “no binding”; in experiment [3], “no binding”; in experiment [4], “no binding”; in experiment [5], “no binding”; in experiment [1], “binds”.

B18: Clone 1 scFv phage clone (Clone 01 scFv) (scFv)
scFv: DIQLTQSPSSLSASVGDRVTITCRASQGIRNDLGWYQQKPGKAPKLMIYAASSLQSGVPSRFSGSGSGTDFTLTISSLQPEDFATYYCLQDYDYPLTFGGGTKLEIKRSRGGGGSGGGGSGGGGSLEMAEVQLVQSGAEVKKPGESLKISCEASGYSFSSNWIAWVRQRPGKGLEWMGIIYPGDSDTRYSPSFQGQVTMSADMSISTAYLQWSSLKASDTAMYYCARFAGPGMWSYGFDYWGQGTLVTVSS
notes: also called phage clone 1
As to B18, the binding result is “no binding” in experiment [2]; “no binding” in experiment [3]; “no binding” in experiment [4]; “no binding” in experiment [5]; “binds” in experiment [1].
